Assay results: paper PMC5964024

Experiments:
[1] = molecular target: myc-tagged human CCR5 (wildtype) (human) (UniProt P51681); assay: flow cytometry on cells
R5gp120-Hi (human) = R5gp120-Hi (human) (UniProt P51681); assay: flow cytometry on cells

Substance “BaL gp120-CD4-FLAG (from UniProt P01730 26-209) (ligand)” has a Kd [1] of 32 nM and a Kd (R5gp120-Hi (human)) of 12 nM.
